From US20260232769A1 (WUXI BIOLOGICS IRELAND, published 2026)

Key:
Test in all cases: cell-based or functional assay
[1] = biological target: PD-1 (on CHO-PD1 engineered cell line; on activated CD8+ T cells) (UniProt Q15116 25-288, limits assumed)
[2] = biological target: T1, IL-2Rα (CD25) on human activated CD8+ T cells (human, UniProt P01589 22-272)
T1 sequence (looked up): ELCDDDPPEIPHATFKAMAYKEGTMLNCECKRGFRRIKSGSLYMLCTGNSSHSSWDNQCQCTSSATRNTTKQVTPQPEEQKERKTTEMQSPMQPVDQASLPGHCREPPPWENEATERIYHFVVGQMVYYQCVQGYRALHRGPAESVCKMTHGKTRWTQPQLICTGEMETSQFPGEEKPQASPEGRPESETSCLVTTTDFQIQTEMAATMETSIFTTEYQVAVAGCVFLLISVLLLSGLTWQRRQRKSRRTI

[3] = biological target: T2, IL-2Rβ/γc complex (intermediate affinity receptor) on primary human CD8+ T cells (human, UniProt P14784 27-551; P31785 23-369)
T2 sequence (looked up) 1: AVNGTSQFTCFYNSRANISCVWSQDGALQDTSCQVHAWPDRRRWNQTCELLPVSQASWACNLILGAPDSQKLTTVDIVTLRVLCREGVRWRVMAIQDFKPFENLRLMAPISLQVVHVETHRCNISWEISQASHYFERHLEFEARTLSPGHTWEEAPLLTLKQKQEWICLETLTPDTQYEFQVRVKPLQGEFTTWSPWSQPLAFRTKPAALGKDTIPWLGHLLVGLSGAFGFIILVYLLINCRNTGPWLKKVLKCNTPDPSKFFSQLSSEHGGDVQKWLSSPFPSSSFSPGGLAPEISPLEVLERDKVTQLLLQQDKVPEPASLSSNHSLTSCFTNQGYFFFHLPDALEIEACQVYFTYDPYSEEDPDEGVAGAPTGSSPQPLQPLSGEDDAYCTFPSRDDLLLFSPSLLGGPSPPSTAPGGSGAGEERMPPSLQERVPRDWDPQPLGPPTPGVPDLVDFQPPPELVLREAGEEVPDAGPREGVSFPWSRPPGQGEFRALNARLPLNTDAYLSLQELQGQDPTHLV
T2 sequence (looked up) 2: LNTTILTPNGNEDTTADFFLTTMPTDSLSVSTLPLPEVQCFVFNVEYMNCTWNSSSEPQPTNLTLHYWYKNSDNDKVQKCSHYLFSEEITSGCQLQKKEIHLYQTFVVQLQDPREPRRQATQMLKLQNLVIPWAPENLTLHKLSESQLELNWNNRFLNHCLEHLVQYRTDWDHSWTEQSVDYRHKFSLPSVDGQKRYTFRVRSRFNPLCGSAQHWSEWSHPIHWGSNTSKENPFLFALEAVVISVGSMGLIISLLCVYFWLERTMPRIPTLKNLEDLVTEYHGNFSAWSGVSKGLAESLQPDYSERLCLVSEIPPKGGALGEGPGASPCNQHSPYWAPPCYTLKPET

[4] = biological target: T3, IL-2Rα/β/γc complex (high affinity receptor) on human activated CD8+ T cells (human, UniProt P01589 22-272; P14784 27-551; P31785 23-369)
T3 sequence (looked up) 1: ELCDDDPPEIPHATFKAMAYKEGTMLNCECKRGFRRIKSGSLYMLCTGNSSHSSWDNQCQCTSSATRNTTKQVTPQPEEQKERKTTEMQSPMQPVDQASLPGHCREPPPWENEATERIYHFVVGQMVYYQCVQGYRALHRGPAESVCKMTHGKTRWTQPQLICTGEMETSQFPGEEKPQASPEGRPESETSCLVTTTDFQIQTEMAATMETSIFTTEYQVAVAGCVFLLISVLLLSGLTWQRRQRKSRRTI
T3 sequence (looked up) 2: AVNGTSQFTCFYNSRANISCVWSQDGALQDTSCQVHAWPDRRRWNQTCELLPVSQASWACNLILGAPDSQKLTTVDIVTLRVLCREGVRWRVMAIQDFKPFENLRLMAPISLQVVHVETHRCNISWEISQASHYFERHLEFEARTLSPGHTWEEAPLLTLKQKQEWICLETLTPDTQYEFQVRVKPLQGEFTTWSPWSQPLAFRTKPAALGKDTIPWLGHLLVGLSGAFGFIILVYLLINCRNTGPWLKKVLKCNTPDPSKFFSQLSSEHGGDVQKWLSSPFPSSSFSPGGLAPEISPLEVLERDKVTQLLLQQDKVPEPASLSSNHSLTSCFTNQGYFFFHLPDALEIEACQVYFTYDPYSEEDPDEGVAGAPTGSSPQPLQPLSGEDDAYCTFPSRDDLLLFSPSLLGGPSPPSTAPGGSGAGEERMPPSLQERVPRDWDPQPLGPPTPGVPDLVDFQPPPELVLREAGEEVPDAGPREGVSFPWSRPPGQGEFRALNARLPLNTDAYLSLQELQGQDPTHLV
T3 sequence (looked up) 3: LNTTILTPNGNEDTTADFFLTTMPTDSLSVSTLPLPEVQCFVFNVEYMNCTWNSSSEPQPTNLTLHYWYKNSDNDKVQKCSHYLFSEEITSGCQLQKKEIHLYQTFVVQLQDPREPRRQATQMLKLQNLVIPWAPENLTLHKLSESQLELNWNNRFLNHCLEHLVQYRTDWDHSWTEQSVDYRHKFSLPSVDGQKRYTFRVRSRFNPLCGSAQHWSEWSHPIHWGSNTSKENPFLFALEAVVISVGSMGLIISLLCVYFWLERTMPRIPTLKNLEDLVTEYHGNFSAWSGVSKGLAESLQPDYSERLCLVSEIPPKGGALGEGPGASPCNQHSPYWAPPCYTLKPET

B1: W3XX115-T2U3.E44-6.uIgG4V322 (Fc fusion)
chain: APTSSSTKKTQLQLEHLLLDLQMILNGINNYKNPKLTRMLTFKFYMPKKATELKHLQCLEEELKPLEEVLNLAQSKNFHLRPRDLISNINVIVLELKGSETTFMCEYADETATIVEFLNRWITFCQSIIESKYGPPCPPCPAPEAAGGPSVFLFPPKPKDTLMISRTPEVTCVVVDVSQEDPEVQFNWYVDGVEVHNAKTKPREEQFNSTYRVVSVLTVLHQDWLNGKEYKCKVSNKGLPSSIEKTISKAKGQPREPQVYTLPPCQEEMTKNQVSLWCLVKGFYPSDIAVEWESNGQPENNYKTTPPVLDSDGSFFLYSRLTVDKSRWQEGNVFSCSVMHEALHNHYTQKSLSLSLGK
heavy: QVQLVQSGAEVKKPGSSVKVSCKASGFTFTTYYISWVRQAPGQGLEYLGYINMGSGGTNYNEKFKGRVTITADKSTSTAYMELSSLRSEDTAVYYCAIIGYFDYWGQGTMVTVSSASTKGPSVFPLAPCSRSTSESTAALGCLVKDYFPEPVTVSWNSGALTSGVHTFPAVLQSSGLYSLSSVVTVPSSSLGTKTYTCNVDHKPSNTKVDKRVESKYGPPCPPCPAPEAAGGPSVFLFPPKPKDTLMISRTPEVTCVVVDVSQEDPEVQFNWYVDGVEVHNAKTKPREEQFNSTYRVVSVLTVLHQDWLNGKEYKCKVSNKGLPSSIEKTISKAKGQPREPQVCTLPPSQEEMTKNQVSLSCAVKGFYPSDIAVEWESNGQPENNYKTTPPVLDSDGSFFLVSRLTVDKSRWQEGNVFSCSVMHEALHNHYTQKSLSLSLGK
light: DVVMTQSPLSLPVTLGQPASISCRSSQSLLDSDGGTYLYWFQQRPGQSPRRLIYLVSTLGSGVPDRFSGSGSGTDFTLKISRVEAEDVGVYYCMQLTHWPYTFGQGTKLEIKRTVAAPSVFIFPPSDEQLKSGTASVVCLLNNFYPREAKVQWKVDNALQSGNSQESVTEQDSKDSTYSLSSTLTLSKADYEKHKVYACEVTHQGLSSPVTKSFNRGEC
PD-1+/PD-1- ratio (pSTAT5 potency, activated versus primary CD8+ T) [1]: 3470 fold
PD-1+/PD-1- ratio (pSTAT5 potency, activated versus primary CD8+ T) [2]: 3470 fold
Potency reduction, pSTAT5, human primary CD8+ T [3]: 13.4 fold
pSTAT5 EC50, human primary CD8+ T [3]: 191 nM
Potency reduction, pSTAT5, human activated CD8+ T (CD25 positive and PD-1 positive) [4]: 2 fold
pSTAT5 EC50, human activated CD8+ T (CD25 positive and PD-1 positive) [4]: 55 pM

B2: W3XX115-T2U3.E44-26.uIgG4V322 (Fc fusion)
chain: APTSSSTKKTQLQLEHLLLDLQMILNGINNYKNPKLTRMLTFKFYMPKKATELKHLQCLEEELKPLEEVLNLAQSKNFHLRPRDLISNINVIVLELKGSETTFMCEYADETATIVEFLNRWITFCQSILESKYGPPCPPCPAPEAAGGPSVFLFPPKPKDTLMISRTPEVTCVVVDVSQEDPEVQFNWYVDGVEVHNAKTKPREEQFNSTYRVVSVLTVLHQDWLNGKEYKCKVSNKGLPSSIEKTISKAKGQPREPQVYTLPPCQEEMTKNQVSLWCLVKGFYPSDIAVEWESNGQPENNYKTTPPVLDSDGSFFLYSRLTVDKSRWQEGNVFSCSVMHEALHNHYTQKSLSLSLGK
heavy: QVQLVQSGAEVKKPGSSVKVSCKASGFTFTTYYISWVRQAPGQGLEYLGYINMGSGGTNYNEKFKGRVTITADKSTSTAYMELSSLRSEDTAVYYCAIIGYFDYWGQGTMVTVSSASTKGPSVFPLAPCSRSTSESTAALGCLVKDYFPEPVTVSWNSGALTSGVHTFPAVLQSSGLYSLSSVVTVPSSSLGTKTYTCNVDHKPSNTKVDKRVESKYGPPCPPCPAPEAAGGPSVFLFPPKPKDTLMISRTPEVTCVVVDVSQEDPEVQFNWYVDGVEVHNAKTKPREEQFNSTYRVVSVLTVLHQDWLNGKEYKCKVSNKGLPSSIEKTISKAKGQPREPQVCTLPPSQEEMTKNQVSLSCAVKGFYPSDIAVEWESNGQPENNYKTTPPVLDSDGSFFLVSRLTVDKSRWQEGNVFSCSVMHEALHNHYTQKSLSLSLGK
light: DVVMTQSPLSLPVTLGQPASISCRSSQSLLDSDGGTYLYWFQQRPGQSPRRLIYLVSTLGSGVPDRFSGSGSGTDFTLKISRVEAEDVGVYYCMQLTHWPYTFGQGTKLEIKRTVAAPSVFIFPPSDEQLKSGTASVVCLLNNFYPREAKVQWKVDNALQSGNSQESVTEQDSKDSTYSLSSTLTLSKADYEKHKVYACEVTHQGLSSPVTKSFNRGEC
PD-1+/PD-1- ratio (pSTAT5 potency, activated versus primary CD8+ T) [1]: 4200 fold
PD-1+/PD-1- ratio (pSTAT5 potency, activated versus primary CD8+ T) [2]: 4200 fold
Potency reduction, pSTAT5, human primary CD8+ T [3]: 25.9 fold
pSTAT5 EC50, human primary CD8+ T [3]: 370 nM
Potency reduction, pSTAT5, human activated CD8+ T (CD25 positive and PD-1 positive) [4]: 3.2 fold
pSTAT5 EC50, human activated CD8+ T (CD25 positive and PD-1 positive) [4]: 88 pM
